Experimental findings from the nanobody polyreactivity screen of Harvey et al. (2022) are described below.

This data set in a line: yeast display, Sf9 membrane polyspecificity reagent, FACS + sequencing; frameworks hold sequencing errors. A digest of the protocol:
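Synthetic nanobody libraries on Saccharomyces cerevisiae BJ5465 were galactose-induced for 36–48 hours, stained 1 hour at 4 °C with 10% biotinylated, detergent-solubilized Sf9 membrane reagent and enriched on streptavidin microbeads. FACS then separated cells into low and high (top ~1%) gates by anti-HA (expression) and streptavidin (reagent binding) fluorescence. Genes were colony-PCR amplified, MiSeq 2 × 250 sequenced and CDR-length filtered. A clone's polyreactivity label is that of its gate of origin.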
In the case of “QVQLVESGGGLVQPGGSLRLSCAASGRILYYHAMAWYRQAPGKERELVARISSGGSTNYADSVKGRFTISRDNAKNTVYLQMNSLKPEDTAVSYCAVAKGGLAWGVGRGGRYDYWGQGTQVTVSS”, the “polyreactivity (PSR sort gate)” value is given as “low polyreactivity”.
The entry for “QVQLVESGGGLVQAGGSLRLSCAPSGRIFGAYGMGWYRQAPGKERELVAAISNGGRTSYADSVKGRFTISRDNAKNTVYLQLNSVKPEDTAVYYCAAVYWPWFGAYDYWGHGTQVTVSS” is “high polyreactivity”.
The entry for “QVQLVDSGGGLVQAGGILRLSCAASGRTFTYYTMGWYRQAPGKESEMVAAITWSGGRTYYADSVKGRFTISRDNAKNTVYLQMNILKPEDTAVYYCAAYEIYYEFDSWGQGTQVTVSS” is “low polyreactivity”; for “QVQRVESGGGLVQAGGCLRLSSAASGFIFRYNDMGWYRQAPGKERQLVATITGSGTSTYYADSVKGRFTISRDNAKTTVYLQMNSLKPEDTAVYYCAAVTSYWYWYVGYDYWGQGTQVTVSS” it is “high polyreactivity”.
The entry for “QVQLVESGGGLVQAGGSLRLSCAASGSIFHPYAMGWYRQAPGKERELVAAISKSGGNTYYADSVKGRFTISRDNAKNTVYLQMNSLKPEDTAVYYCAALDYWGQGTLVTVSS” is “low polyreactivity”; for “QVQLVESGGGLVQAGGSHRLSCAASGTFKAYAMGWYRQAPGKERELVAVISNGGSTYYADSVKGRFTISRDNAKNTVYLQMNSLKPEDTAVYYCAARRGWYAYRFLSGSRLHYYWGQGTQVTVSS” it is “high polyreactivity”.
For the sequence “QVQLVESGGGVVQAGGSLRLSCAASGRISRGNAMGWYRPAPGKEREFVAAISWSGDGTYYADSVKGRFTISRDNAKYTVYLQMNSLNPEDTAVYYCNTAVKVERDYWGQGTQVTVSS”, the “polyreactivity (PSR sort gate)” value is recorded as “low polyreactivity”.
Turning to “QVHLVESGGGLVQAGGSLRLSCAASGFIFHYNAMGWYRQAPGKERELVAAITSGDSTDYADSVKGRFTISRDNAKNTVYLQMNSLIPEDTAVYYCAAYHREGRRDDYWGQGTQVTVSS”, the “polyreactivity (PSR sort gate)” value is “low polyreactivity”.
For “QVQLVESGGGLVQAGGSLRLSCAASGITFHRYAMGWYRQAPGKERELVAAITKRGGSTNYADSVKGRFTISRDNAKNTVYLQMNSLKPEDTAVYYCNARSTWPSGRYAHYRRYYYWGQGTQVTVSS” the value was “high polyreactivity”.
Regarding “QVQLVESGGGLVQAGGSLRLSCAASGSTFDRYTLGWYRQAPGKERELVAGISNSGGSTYYADSVKGRFTISRDNAKNTVYLQMNSLKPEDTAVYYCAAAYSIRRILYYYWGQGTHVTVSS”, the “polyreactivity (PSR sort gate)” value is “high polyreactivity”.
For the sequence “QVQLVESGGGLVQAGGSLRLSCAASGSTFSSYVMGWYRQAPGKERELVAGITRGGRTYYADSVKGRFTISRDNAKNTVYLQMNSLKPEDTAVYYCAKDQGGVHELDYWGQGTQVTVSS”, the “polyreactivity (PSR sort gate)” value was “low polyreactivity”.
With “QVQLVESGGGLVQAGGSLRLALLTPDLPSTINDMGWYRQAPGKERELVAAITRGGSTNYADSVKGRFTISRDNAKNTVYLQMNSLKPEDTAVYYCAAPSAGWRDGGDYWGHGTQVTVSS”, the “polyreactivity (PSR sort gate)” value is recorded as “low polyreactivity”.
Consider “QVQLVESGGGLVQAGGSLRLSCAASGFIFRYYAMGWYRPAPGKERELVATISSGGGTHYADSVKGRFTISRDNAKNTVYLQMNSLKPEDAAVYYCNARGYRRLRTRVDYWGQGTQVTVSS”, for which the “polyreactivity (PSR sort gate)” value is reported as “high polyreactivity”.
In the case of “QVQLVESGGGLVQAGGSLRLSCAASGSTFGAYAMGWYRQAPGKERELVAAISRSGASTYYADSVKGRFTISRDNAKNTVYLQMNSLKPVDTAVYYCAAKIVSRYRVIYDYWGQGTQVTVSS”, the “polyreactivity (PSR sort gate)” value is given as “high polyreactivity”.
The entry for “QVQLVESGGGLVQAGGSLRLSCAASGSIFGPNAMGWYRQAPGKERELVAAITLSGGSTYYADSVKGRFTISRDNAKNTVYLQMNSLKPEDTAVYYCNADLLPADAPLWVTGGDYWGQGTQVTVSS” is “low polyreactivity”; for “QVQLEESGGGLVQAGGSLRLTCAASGSILVYNAMGWYRQAPGKERELVAGISSSGTRTYYADSVKGRFTISRDNAKITFYLQMNSLKPEDTAVYYCNALPVRGHQEYDSWGQGTQVNVSS” it is “high polyreactivity”; for “QVQLVESGGGLVQAGGSLRLSCAASGSIFTYYAMGWYRQAPGKERELVAAISLDGGSTYYADSVKGRFTISRDNAKNTVYLQMNSLKPEDTAVYYCAADYRFIPYTYLYDYWGQGTQVTVSS” it is “low polyreactivity”.
For “QVQLVESGGGLVQAGGSLRLSCAASGSTFSYYAMGWYRQAPWKERELVAASTAGGGSTYYADSVKGRFTISRDNAKNTVYLHMNSLKPEDTAVYYCNADQIFGPALNLWKLDYWGQGTQVTVSS” the value was “low polyreactivity”.
Consider “QVQLVESGGGLVQAGGSLRLSSAASGSTFRGNAMGWYRQAPGKERELVAAISAIGGSTYYADSVKGRFTISRDNAKNTVYLQMNSLKPEDTAVYYCAARYLYLLGGFNYWGQGTQVTVSS”, for which the “polyreactivity (PSR sort gate)” value was “high polyreactivity”.
In the case of “QVQLVESGGGLVQAGGSLRLSCAASGLTFKENVMGWYRQAPGKERELVAAISTGASTYYADSVKGRFTISRDNAKNTVYLQMNSLKPEDTAVYYCAKRVTRWYGYWGQGTQVTVSS”, the “polyreactivity (PSR sort gate)” value is recorded as “high polyreactivity”.
For “QVQLVESGGGLVQAGGRLRLSCAASGFTFRGYAMGWYRQAPGKERELVAAITKRGGSTYYADSVKGRFTISRDNAKNTVYLQMNSLKPEDTAVYYCNKYAGQTTYDYWGQGTQVTVSS”, the “polyreactivity (PSR sort gate)” value is recorded as “high polyreactivity”.
For “QEQLQECGGGLVQAGGSLRLSCAASGNVFDADIMGWYRQAPGKERELVASVTDGGSTNYADSVKGRFTFSRDIAKNTVYLQMNSLKPEDTAVYYCAAIVYPDILTYFDYDYDYFYWGQGTQVTVGS” the value was “low polyreactivity”; for “QVQLVESGGGLVQAGGSLRLSCAASGRIFYSNTMGWYRQAPGKERELVAAITWRGGRTHYADSVKGRLTISRDNAKNPVYLQMNSLTPEDTAVYYCAARYIPIQYPSYRTWGGYSWGQGTQVTVSS”, “high polyreactivity”.
The entry for “QVQLVESGGGLVQAGGSLRLICAASGSIFYRNAMGWYRQAPGKERELVAVITDGGTTSYADSVKGRFTISRDNAKNTVYLQMNSLKPEDTAVYYCAADRQPVYPSLGVYWDYGHDYWGQGTQVTVSS” is “low polyreactivity”; for “HVQLQESGGGMVQASGSPRLSCPASGNIFDADIMGWYRQAPGKQCELVASITDGGSTNYADSEKGRFTISSDNAKNTVYLQMNSLKPEDTAVYYCAAIAYPDIPTYFDYDSDYFYWGQGTHVTVSS” it is “high polyreactivity”.
With “QVQLVESGGGLVQAGGSLRLSCAASGYIFGYNAMGWYRPAPGKERELVATITWRGGSTYYADSVKGRFTISRDNAKNTVYLQMNSLKPEDTAVYYCAAVRWVRYRTSAYEYWGQGTQVTVSS”, the “polyreactivity (PSR sort gate)” value is “high polyreactivity”.
As to “QVQLVESGGGLVQAGGSLRLSWAASGSTFDSNGMGRYRQAPGKERELVATITSRGASTNYSDSVKGRFTISRDNAKNTVYLEMNSLKPEDTAVYYCNREVPWWLYKYVGHDYWGQGTQVTVSS”, the “polyreactivity (PSR sort gate)” value is recorded as “low polyreactivity”.
Take “QVQLVESGGGLVQAGGSLRLSCAAYVSIFGDNALGWYRQAPGKEMELVAAISSDGNTNYADSVKGRFTISRDNAKNTVYLQMNSLKPEDTAVYYCAARWGYRRVRANSFYYWGQGTQVTVSS”: the “polyreactivity (PSR sort gate)” value is “low polyreactivity”.
For “QVQLVESGGGLVQAGGSLRLSCAASGFIFLGNAMGWYRQAPGKERELVAAISSGGSTYSDSVKGRFTISRDNAKHTVYLQMNSLKPEDTAVYYCAADSFIPPYDHWGQGTQVTVSS” the value was “low polyreactivity”; for “QVQLVESGGGLVQAGGSLRLSCAASGSIFVRNVMGLYRQAPGKERELVATIRYRGGSTYYADSVKGRFSISRDNAKNTVYLQMNSLKPEDTAVYYCNARYLWADEYYYWGQGTQVTVSS”, “low polyreactivity”; for “QVQLVESGGGLVQAGGSLRLRCAASGSIFVSNTMGWYRQAPGKEREMVASIRETAGSTNYADSVKGRFTISRDYAKNTVYLQMNSLKPEDTEVYYCAARYSPTRYHYGYWGQGTQVTVSS”, “low polyreactivity”.
The entry for “QVQLVESGGGLVQAGGSLRLSCAASGRIVKYAMGWYRQAPGKERELVAAISGSGGTTYYADSVKGRFTISRDNAKNTVYLQMNSLKPEETAVYYCAASRPRPPSSRRMDYWGQGTQVTVSS” is “high polyreactivity”.
The entry for “QVQLVESGGGLVQAGGSLRLSCAASGSIFGWYAMGWYRQAPGKERELVATISSGGGNTYYADSVKGRFTISRDNAKNTVYLQMNSLKPEDTAVYYCAADRTFYGIRFDYWGQGTQVTVSS” is “low polyreactivity”.
As for “QVQLVESGGGLVQAGGSLRLSCAASGLTFYNNAMGWYRQAPGKERELVARISSGGSTYYADSVKGRFTISRDNAKNTVYLQMNSLKPEDTAVYYCAAGRGYWWWYGYDYWGQGTQVTVSS”, the “polyreactivity (PSR sort gate)” value is recorded as “low polyreactivity”.
Turning to “QVHHVESGGGLVQAGGSLRLSCAASGIIFGYNVMGWYRQEPGKVRELVAAMRYSGGSTYYADSVKGSFTISRDNAKNTVYLQMNSLKPEDTAVYYCATYSAVRELLWGNGYWGQGTQVTVSS”, the “polyreactivity (PSR sort gate)” value is reported as “high polyreactivity”.
For “QVQLVESGGGLVQAGGSLRISCAASGRTFYANAMGWYRQAPGKERELVAAISSNGGSTYYADSVKGRFTISRDNAKNTVYLQMNSLKPEDTAVYYCAVVSRYIAWRKYDYCGQGTQVTVSS” the value was “high polyreactivity”; for “QVQLVESGGGLVQAGGSLRLSCAASGGIFRVYAMGWYRQAPGKERELVAAISRSGSSTYYAVSVKGRFTISRDNAKNTVYLQMNSLKPEDTAVYYCNAYSQYWLGNNYWGEGTQVTVSS”, “high polyreactivity”.
For “QVQLGESGGGLVQAGGSLRLSCAASGRNFENNAMGWYRQAPGKERELVASIRGGGSTNYADSVKGRFTISRDNAKNTVYVQMNSLKPEDTAVYYCNADYWWSYVRFDYWGQGTQVTVSS” the value was “low polyreactivity”; for “QVQLVESGGGLVQAGGTLRLSCAASGITFKRYAMGWYRLAPGKERELVATISRSGGSPYADSVKGRFTISRDNAMNTVYLQMNSLKPEDSAVYYCNAVSQSSEYDYWGEGTQVTVSS”, “high polyreactivity”; for “QVQLVESGGRLVQAGGSLRLSSAASGGTFYRNARGWYRQAPGKERELVASISRTGGSTYYADSVKGRFTISRDNAKNTVYLQMNSLKQVDTAVYYCAKKQPRYSYFDNDYWGQGTQVTVSS”, “high polyreactivity”.
For “QVQLVESGGGLVQAGGSLRLSCAASGRIFTPYAMGWYRKAPGKERELGAVIRDGSTYYADSVKGRFTISRDNAKNTVYLQMNRLKPEDTAVYYCAAVNYYDQYGDYYWGQGTQVTVSS” the value was “low polyreactivity”.
